Experiment: yeast display, Sf9 membrane polyspecificity reagent, FACS + sequencing; frameworks hold sequencing errors
Outline: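 In a synthetic yeast display library (Saccharomyces cerevisiae BJ5465), nanobody expression was induced with galactose for 36–48 hours. FACS gates were set low and high (top ~1%) using anti-HA fluorescence for expression and streptavidin fluorescence for binding of the Sf9 membrane reagent. Each polyreactivity label is drawn from the gate of origin.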

| Sequence | polyreactivity (PSR sort gate) |
| --- | --- |
| QDQLVESGGGLVQAGGRLRLSCAASGRTFYWNAMGWYRQAPGKERELVAAINGGGSTYYADSVKGRFTISRDNAMNTVYLQINSLKQEDSAVYYCNAESYEFHRAWGDYDYWGHGTQVTVSS | low polyreactivity |
| QVQLVESSGGLVQAGGSLRLSCAASGLTFKRYAMGWYRQAPGKERELVAAINSGGSTNYADSVKGRFTISRDNAKNTVYLQMNSLKPEDTAVYDCAASTSRYYWYALRDYWGQGTQVTVSS | high polyreactivity |
| QVQLVESGGGLVQAGASLRLSCAAAGITIGSNVMGWYRQAPRKERELVAAISQCGGRTYYADSVKGRFTISRDYAKNTVYLQMNSMKPEDTAVYYCAKRQRSFYGRPMCDYWGQGTQVTVSS | high polyreactivity |
| QVQLVESGGRLVQAGGSRRLSCAASGFTLRRNAMGWYRQAPGKERELVAAISSSGSTYYADSVKGRFTISRDNAKNTVYLQMNSLKPEDTAVYYCAALSKKVRTGQYNVGGDYWGQGTQVTVSS | high polyreactivity |
| QVQLVESGGGLVQAGGSLRLSCAASGNTLIVNAMGWYRQAPGKETELVAAITRDGRTNYADSVKGRFTISRDNAKNTVYLQMNSLKPEDTAVYYCAAEGVPDALDRDYWGQGTQVTVSS | low polyreactivity |
| QVQLVESGGGLVQAGGSLRLSCAASGRIFEPYAMGWYRQAPGKERELVAAITSGGSTDYADSVKGRFTISRDNAKNTVYLQMNSLKPEDTAVYYCAAETVWRLDYWGQGTQVTVSS | low polyreactivity |
| QVQLVESGAGLVQAGGSLRLSCAASGSIFQPDAMGWYRQAPGKERELVAAITNCGSTYYADSVKGRFTISRDNAKNTVYLQMNSLNPEVTAVYYCAADVQSSHEYDYWGQGTQVTVSS | low polyreactivity |
| QVQLVESGGGLVQAGGSLRLSCAASGSIFLIYAMGGYRPAPGKERELVAGINWSGSRTYYADSVKGRFTISRDNAKNTVYLQMNSLKPEDTAVYYCAARVRRPLYSAYDSWGQGTQVTVSS | low polyreactivity |
| QVQLVETGPGLVQAGGSLRLSCAASGSIFGTYAMGWYRQAPGKERELVAAITGNGGRTYYADSVKGRFTISRDNAKNTVFLQMNSLKPEDTAVYYCAKATSRRGFYDWGPGTQVTVSS | high polyreactivity |
| QVQLEESGGGLVQAGGSLRLSCAASGSILVAYAMGWYRQAPGKERELVAAISSVGNTYYADSVKGRFTISRDNAKNTVYLQMNSLKPEDTAVYYCNAVYRVWYAEWSTVGSPHDYWGQGTQVTVSS | low polyreactivity |
| QVQLVESGGGLVQSGGSLRLSSAASGYTFWAYPMGWYRQAPGKERELVAGISSRGSRTYYADSVKGRFTISRDNAKNTVYLQMNSLKPEDTAVYFCNALRTAQGYYPPLDYWGQGTQVTVSS | high polyreactivity |
| QVQLVESGGGLVQAGGSLRLSCAASGRTFHYYAMGWYRQAPGKERELVAAISSTGGSTYYADSVKGRFTISRDNAKHPVYVQMNSLKPADTAVYSCAARQFGYYHVRNEYWGQGTQVTVSS | high polyreactivity |
| QVQLVESGGGLVQAGGSLRLSCAASGYIFSRYAMGWYRQAPGKERELVAAITRSGTRTYYADSVKGRFTISRDNAKNTVYLQMNSLKPEDTAVYYCAKEYLYSSGFDYWGQGTQVTVSS | high polyreactivity |
| QVQLVESGVGLVQAGGSLRLSCSASGSTFYTYAMGWYRQAPGKDRELVAAINLRGGRTYYADSVKGRFTISRDTAKNTVYLQMNSRKPEDTAVYYCAAQSIAYYKQIYYLGMDYWGQGTQVTVSS | high polyreactivity |
| QVQLVESGGGLVQAGGSLRLSCAASGSTFRFYAMGWYRPAPGKERELVAVIRSTGSTYYADSVKGRFTISRDNAKNTVYLQMNSLKPEDTAVYYCAAQNAWWSNGRSYDYWGQGTQVTVSS | low polyreactivity |
| QVQLVESGGGLVQAGGSLRLSCAASGYIFYRNAMGWYRQAPGKEREFVAAISSSGVSTYYADSVKGRFTISRDNAKNTVYLQMNSLKPEDTAVYYCAASYLTWKRRYDYWGQGTQVTVSS | high polyreactivity |
| QVQLVESGGGLVQAGGSLLLSCAASGGTFYYYTMGWYRQAPGKERELVAAISWSGGSTYYADSVKGRFTISRDNAKNTVYLQMNSLKPEDTAVYYCAALAYVSDYDYWGQGTQVTVSS | high polyreactivity |
| QDQLVESAGGLVQAGGSLRLSCAASGSISYNNVMGWYRQAPGKERELVARIRSGGSTYYADSVKGRFTISRDNAKNTVYLQMNSLKPEDTAVYYCAARTKRQAGSYGYWGQGTQVTVSS | high polyreactivity |
| QVQLVESGGGLVQGGGSLSLSCAASGSIFLYYAMGWYRQAPGKERELVAGIRRGGRTNYSDSVKGRFTISRDNAKNNVYLQMNSLKPEDTAVDYCAKGGYCGQGTQVTVSS | high polyreactivity |
| QVQLVESGGGLVQAGGSLRLSCAASGSTFIYYTMGWYRQAPGKERELVAAINGGGGSTYYADSVKGRFTISRDNAKNTVYLQMTSLKPEDTAVYYCATDPWHRAWGYGWGYNYWGQGTQVTVSS | low polyreactivity |
| QVQLEESGGVLVQAGGSLRLSCAASGSNFYLYAMGWYRQAPGKERELVAGITRSGGRTYYADSVKGRFTISRDNAKNTVYLQMNSLKPEDTAVYYCAAYLVVRIRYTQRYDYWGQGTQVTVSS | low polyreactivity |
| QDQLVESGGGLVQAGGSLRLSCAASGSTFYYNAMGLYRQAPGKEREVVARISRSGGSTYADSVKGRFTISRDNAKNTVYLQMNSLKPEDTAVYYCNADAYGTPEFTSYAVRYDYWGQGTQVTVSS | low polyreactivity |

| Sequence | polyreactivity (PSR sort gate) |
| --- | --- |
| QVQLVESGGGLVQAGGSLRLSCAASGSIFAGNAMGWYRQSPGKERELVAAITWRSGRTYYADSVKGRFTISRDNAKNTVYLEMNSLKPEDTAVYYCARGRYGYTAPFRRWYFRYDYWGQGTQVTVSS | high polyreactivity |
| QVQLVESGGGLVQAGGSLRLSCAASGSTFWFYAMGWYRQAPGKERELVAVISNSGSTYYADSVKGRFTISRDNAKNTVYLQMNSLKPEDTAVYYCNKDGGGDSYWYDYWGQATQVTVSS | low polyreactivity |
| QVQLAESGGCLVQAGGTLRLSCAASGSTSAKNVMGWYRQPPGKERELVAAISRSGGRTYYADSVKGRFTISRDNAKNTVFLQMNSLKPEVSAVYYCANDYGGYYSRYDYWGQGTQVTVSS | high polyreactivity |
| QVQLVESGGGLVQAGGSLRLSCAASGRTFLRYTMGWYRQAAGKERELVAVITNGGTRTYYADSVKGRFTISRDNAKNTVYLQMNSLKPEYTAVYYCAARVRYTANYDYWGQGTQVTVSS | high polyreactivity |
| QVQLVESGGGLVHAGGSLRLSCAASGSTFGDNAMRLYRQAPGKERELVAVISTAGSTYYADSVKGRFTISRDNAKNTVYLQMNSLKPEDTAVYYCAAAYYVWLYGFWYRRYDYWGQGTQVTVSS | low polyreactivity |
| QVQLVESGGGLVQAGGSLRLSCAASGSTFARYAMGWYRPAPGKERELVAVIRSGGSTNYADSVKGRFTISRDNAKNTVYLQMNSLKPEDTAGAADQWTIHRWATYGYWGQGTQVTVSS | low polyreactivity |
| QVQLVESGGGLVQAGGSLRLSCAASGRTFDWYAMGWYRPAPGKERELVAAISRSGGSTYYADSVKGRFTISLDNAKNTVYLQMNSLKPEDTAVYYCAKRYAPDSRYYYWGQGTQVTVSS | high polyreactivity |
| QYQLVESGGGLVQAGGSLRLSCAASGSTFRYYAMGWYRQAPGKETELVAAISTRGGTTYYADSVKGRFTISRDNAKNTVYLQMNSLKPEDTAVYYCAAEALVPLIYYYWGQGTQVTVSS | low polyreactivity |
| QVQLVESGGGLVQAGVSLRLSCAASGRTFTHYPMGWYRQAPGKERELVAAISRSGGTTYYADSVKGRFTISRDNAKSTVYLQMNSLKPEDTAVYYCNAEVVDSELGVFVDYYWAYDYWGQGTQVTVSS | high polyreactivity |
| QVQLVESGGGLVQAGGSLRLSSAASGRIFAVYAMGLYRQAPGKERELVAAINWNDGSTYYADSVKGRFTISRDNAKNTVYLQMNSLKPEDTAVYYCAARALSRSVYGKSGYKYGYWGQGTQVTVSS | high polyreactivity |
| QVQLVESGGGLVQAGGSLRLSCAASGITFWLYAMGWSRQAPGKERELVAGIDNGGSTTYADSVKGRFTISRDNAKNTVYLQMNSLNPEDTAVYYCAATFEWDPVYPYNGFIYDYWGQGTQVTVSS | high polyreactivity |
| QVQLVESGGGLVQAGGSLRLSCAASGSTFEQNAMGWYRQAPGKEREFVAAITGSGGSTYYADSVKGRFTISRDNAKNTVYLQMNSLKPEDTAVYYCAADIQDGLYWWDIYDYWGQGTQVTVSS | low polyreactivity |
| QVQLVESGGGLVQAGGSLRLSCAASGSIFTEYAMGWYIQAPGKERELVAAISWSGATTYYADSVKGRFTISRDNAKNTVYLQMNSLKPEDTAVYYCAARWANRSYEYWGQGTQVTVSS | low polyreactivity |
| QVQLVESGGGLVQAGGSLRLSCAASGRTFWAYAMGWYRQAPGKERELVAAITASGTRTYYADSVKGRFTISRDNAKNTVYLQMNSLKPEDTAVYYCAAERIWWAHAYPTYVANDYWGQGTQVTVSS | high polyreactivity |
| QVQLVESGGGLVQAGGSLRLSCAAYGRTFFSYTMGWYRQAPGKERELVASITWSGGSTYYADSVKGRFTISRDNAKNTVYLQMNSLKPEDTAVYYCAADEKLYITGYDYWGQGTQVNVSS | low polyreactivity |
| QVQLVESGGGLVQAGGSLRLSCAASGRTFGHNAMGWYRQAPGKERELVAAISASGSNTYYADSVKGRFTISRDNAKNTVYLQMNSLKPEDTAVYYCAKQVYRPGQQSRYDYWGQGTQVTVSS | low polyreactivity |
| QVQLVESGGGLVQAGGSLRLSCAASGSTFVPNAMGWYRQAPGKERELVAGISWSGGGTSYADSVKGRFTISRDNAKNTVYLQMNSLKPEDTAVYYCAVVGYEQNEYDYWGQGTQVTVSS | low polyreactivity |
| QVQLVESGGGLVQEGGSLRLSCAASGSTFNYYAMGWYRQAPGKESELVARISWSGSTYADSVKGRFTISRDNAKNTVYLQMNSLKPEDTAVYYCAAPYVLKSHRGMDYWGQGTQVTVSS | low polyreactivity |
| QVQLVESGGGLVQAGGSLRLSCAASGRTLGIYAMGWYRQAPGKERELVADISRDSSTYYADSVKGRFTISRDNAKNTVYLQKNSLKPEDTAVYYCNADQTPRDVTDWWYDYDYWGQGSQVTVSS | low polyreactivity |
| QVQLVESGGGLVQAGGSLRLSCAAYGSNLTWNDMGWYRQAPGKERELVAAIDVNDGSTYYADSVKGRFTISRDNAKNTVYLQMNRLKPEDTAVYYCAEPTDYTWLDSTLADDYWGQGTQVTVSS | low polyreactivity |
| QVHLVESGGGLVQAGGSLRLSCAASGLIFGDYAMGWYRQAPGKERELVAAITGSVTRRYYADSVKGRFTISRDNAKNTVYLQMNSLKPEDTAVYYCATVGYPYTLWHQMDYWGQGTQVTVSS | low polyreactivity |
